Laboratory results as given in US20100272750A1.

B1: HPV45.E1.252 (peptide)
peptide: TLYAHIQCL
modifications: not checked
B2: HPV45.E2.137 (peptide)
peptide: YVVWDSIYYI
modifications: not checked
B3: HPV18.E2.136 (peptide)
peptide: VAWDSVYYM
modifications: not checked
B4: HPV18.E5.51 (peptide)
peptide: TVYVFCFLL
modifications: not checked
B5: HPV16.E2.151 (peptide)
peptide: QVDYYGLYY
modifications: not checked
B6: HPV18/31.E1.11 (peptide)
peptide: GTGCNGWFY
modifications: not checked
B7: HPV16/31.E1.357 (peptide)
peptide: LSQMVQWAY
modifications: not checked
B8: HPV31.E6.15 (peptide)
peptide: LSSALEIPY
modifications: not checked
B9: HPV45.E2.332 (peptide)
peptide: NTGILTVTY
modifications: not checked
B10: HPV31.E2.205 (peptide)
peptide: ISFAGIVTK
modifications: not checked
B11: HPV16.E2.033 HTL epitope (peptide)
peptide: WKHMRLECAIYYKAR
modifications: not checked
B12: HPV31.E2.033 HTL epitope (peptide)
peptide: WKHIRLECVLMYKAR
modifications: not checked
B13: HPV45.E1.228 HTL epitope (peptide)
peptide: DWVMAIFGVNPTVAEGF
modifications: not checked
B14: HPV45.E6.127 HTL epitope (peptide)
peptide: FHSIAGQYRGQCNTC
modifications: not checked
B15: HPV31.E1.15 HTL epitope (peptide)
peptide: NGWFYVEAVIDRQTG
modifications: not checked
B16: HPV16.E7.13 HTL epitope (peptide)
peptide: LDLQPETTDLYCYEQ
modifications: not checked

Molecular target: HLA A6802 (human)
Assay: 125I-probe competition, purified HLA

In order of rising IC50:
1. B2  30 nM
2. B4  41 nM
3. B1  1610 nM
4. B3  5150 nM

Molecular target: HLA A0201 (human)
Assay: 125I-probe competition, purified HLA

In order of falling IC50:
1. B4  175 nM
2. B3  172 nM
3. B2  77 nM
4. B1  34 nM

Molecular target: HLA A2902 (human)
Assay: 125I-probe competition, purified HLA

In order of rising IC50:
1. B5  25 nM
2. B6  116 nM
3. B7  122 nM
4. B8  261 nM
5. B9  1400 nM

Molecular target: HLA A2601 (human)
Assay: 125I-probe competition, purified HLA

In order of rising IC50:
1. B5  251 nM
2. B6  3080 nM
3. B9  3150 nM
4. B8  4110 nM
5. B7  6450 nM

Molecular target: HLA A0301 (human)
Assay: 125I-probe competition, purified HLA

With B10 the IC50 was 17 nM.

Molecular target: HLA A0203 (human)
Assay: 125I-probe competition, purified HLA

In order of falling IC50:
1. B3  1330 nM
2. B4  769 nM
3. B2  248 nM
4. B1  6.2 nM

Molecular target: HLA A3301 (human)
Assay: 125I-probe competition, purified HLA

B10 showed an IC50 of 4370 nM.

Molecular target: HLA A3101 (human)
Assay: 125I-probe competition, purified HLA

B10 gave an IC50 of 115 nM.

Molecular target: HLA A3002 (human)
Assay: 125I-probe competition, purified HLA

In order of falling IC50:
1. B9  8720 nM
2. B8  175 nM
3. B5  160 nM
4. B6  9.1 nM
5. B7  0.93 nM

Molecular target: HLA A0101 (human)
Assay: 125I-probe competition, purified HLA

In order of rising IC50:
1. B5  2.7 nM
2. B7  21 nM
3. B8  35 nM
4. B6  136 nM
5. B9  337 nM

Molecular target: HLA A0202 (human)
Assay: 125I-probe competition, purified HLA

In order of falling IC50:
1. B3  603 nM
2. B4  587 nM
3. B2  27 nM
4. B1  4.9 nM

Molecular target: HLA A1101 (human)
Assay: 125I-probe competition, purified HLA

In the case of B10, the IC50 is reported as 1.6 nM.

Molecular target: HLA A0206 (human)
Assay: 125I-probe competition, purified HLA

In order of falling IC50:
1. B3  790 nM
2. B1  417 nM
3. B4  26 nM
4. B2  20 nM

Molecular target: HLA DRB1*1101 (human)
Assay: competition with 125I probe peptide, purified HLA

In order of rising IC50:
1. B12  81 nM
2. B14  416 nM
3. B11  2400 nM
4. B13  4960 nM

Molecular target: HLA DRB5*0101 (human)
Assay: competition with 125I probe peptide, purified HLA

In order of falling IC50:
1. B15  1200 nM
2. B12  412 nM
3. B13  387 nM
4. B11  280 nM
5. B14  43 nM

Molecular target: HLA DRB4*0101 (human)
Assay: competition with 125I probe peptide, purified HLA

In order of rising IC50:
1. B16  17 nM
2. B12  102 nM
3. B13  571 nM
4. B15  627 nM
5. B11  766 nM
6. B14  1300 nM

Molecular target: HLA DRB1*1302 (human)
Assay: competition with 125I probe peptide, purified HLA

In order of falling IC50:
1. B11  248 nM
2. B13  68 nM
3. B12  54 nM

Molecular target: HLA DRB1*1201 (human)
Assay: competition with 125I probe peptide, purified HLA

B14 was tested, and the IC50 was 10100 nM.

Molecular target: HLA DRB1*0802 (human)
Assay: competition with 125I probe peptide, purified HLA

In order of falling IC50:
1. B14  7640 nM
2. B13  4260 nM
3. B12  476 nM
4. B11  90 nM

Molecular target: HLA DRB1*0404 (human)
Assay: competition with 125I probe peptide, purified HLA

In order of falling IC50:
1. B15  18800 nM
2. B11  6860 nM
3. B14  3300 nM
4. B12  307 nM
5. B13  20 nM

Molecular target: HLA DRB1*0301 (human)
Assay: competition with 125I probe peptide, purified HLA

In order of falling IC50:
1. B13  3750 nM
2. B15  2800 nM
3. B16  590 nM
4. B11  437 nM
5. B12  146 nM

Molecular target: HLA DRB1*0901 (human)
Assay: competition with 125I probe peptide, purified HLA

In order of falling IC50:
1. B13  17900 nM
2. B12  11800 nM
3. B11  6340 nM
4. B15  3670 nM
5. B14  1990 nM

Molecular target: HLA DRB1*0701 (human)
Assay: competition with 125I probe peptide, purified HLA

In order of falling IC50:
1. B12  16400 nM
2. B14  2400 nM
3. B15  1460 nM
4. B11  504 nM
5. B13  52 nM

Molecular target: HLA DRB1*0401 (human)
Assay: competition with 125I probe peptide, purified HLA

In order of falling IC50:
1. B16  1900 nM
2. B15  845 nM
3. B12  263 nM
4. B11  245 nM
5. B13  91 nM
6. B14  8.6 nM

Molecular target: HLA DRB1*1501 (human)
Assay: competition with 125I probe peptide, purified HLA

In order of rising IC50:
1. B13  108 nM
2. B12  134 nM
3. B14  574 nM
4. B11  1390 nM

Molecular target: HLA DRB1*0101 (human)
Assay: competition with 125I probe peptide, purified HLA

In order of rising IC50:
1. B14  107 nM
2. B13  487 nM
3. B11  701 nM
4. B12  1440 nM
5. B15  1860 nM

Molecular target: HLA DRB1*0405 (human)
Assay: competition with 125I probe peptide, purified HLA

In order of rising IC50:
1. B12  71 nM
2. B13  92 nM
3. B15  178 nM
4. B14  358 nM
5. B11  557 nM
